Assay results reported in paper PMC3526301.

Assays:
[1] = molecular target: T1, human alpha-thrombin (Homo sapiens) (UniProt P00734+P00734); assay: bead-based fluorescence binding; conditions: 50 mM Tris, 100 mM NaCl, 1 mM MgCl2, 5 mM KCl, 1 mM CaCl2, 0.01% Tween 20, pH 7.5 (selection buffer), 1 h room temperature …
[2] = molecular target: T1, human alpha-thrombin (Homo sapiens); assay: fibrin formation inhibition (OD350); conditions: 50 mM Tris, 100 mM NaCl, 1 mM MgCl2, 5 mM KCl, 1 mM CaCl2, 0.01% Tween 20, pH 7.5 (selection buffer), 1 h room temperature …

Row | Sequence | fold affinity loss vs TBV-08 (fold lower affinity than TBV-08) [1] | Ki [2] [nM]
1 | AGTCCGTGGTAGGGCAGGTTGGGGTGACT [Tasset-29] | 200 | –
2 | GGTTGGTGTGGTTGG [Bock-15] | 300 | 2.61
